Reference: patent US8642284

Molecular target: histone H2B (calf thymus), P62808

B1: recombinant mSir2α mutant G253A (protein)
chain: MADEVALALQAAGSPSAAAAMEAASQPADEPLRKRPRRDGPGLGRSPGEPSAAVAPAAAGCEAASAAAPAALWREAAGAAASAEREAPATAVAGDGDNGSGLRREPRAADDFDDDEGEEEDEAAAAAAAAAIGYRDNLLLTDGLLTNGFHSCESDDDDRTSHASSSDWTPRPRIGPYTFVQQHLMIGTDPRTILKDLLPETIPPPELDDMTLWQIVINILSEPPKRKKRKDINTIEDAVKLLQECKKIIVLTAAGVSVSCGIPDFRSRDGIYARLAVDFPDLPDPQAMFDIEYFRKDPRPFFKFAKEIYPGQFQPSLCHKFIALSDKEGKLLRNYTQNIDTLEQVAGIQRILQCHGSFATASCLICKYKVDCEAVRGDIFNQVVPRCPRCPADEPLAIMKPEIVFFGENLPEQFHRAMKYDKDEVDLLIVIGSSLKVRPVALIPSSIPHEVPQILINREPLPHLHFDVELLGDCDVIINELCHRLGGEYAKLCCNPVKLSEITEKPPRPQKELVHLSELPPTPLHISEDSSSPERTVPQDSSVIATLVDQATNNNVNDLEVSESSCVEEKPQEVQTSRNVENINVENPDFKAVGSSTADKNERTSVAETVRKCWPNRLAKEQISKRLEGNQYLFVPPNRYIFHGAEVYSDSEDDVLSSSSCGSNSDSGTCQSPSLEEPLEDESEIEEFYNGLEDDTERPECAGGSGFGADGGDQEVVNEAIATRQELTDVNYPSDKS
mono-ADP-ribosylation activity relative to wild type (Phosphorimaging): completely abolished the activity

B2: recombinant mSir2α mutant F265A (protein)
chain: MADEVALALQAAGSPSAAAAMEAASQPADEPLRKRPRRDGPGLGRSPGEPSAAVAPAAAGCEAASAAAPAALWREAAGAAASAEREAPATAVAGDGDNGSGLRREPRAADDFDDDEGEEEDEAAAAAAAAAIGYRDNLLLTDGLLTNGFHSCESDDDDRTSHASSSDWTPRPRIGPYTFVQQHLMIGTDPRTILKDLLPETIPPPELDDMTLWQIVINILSEPPKRKKRKDINTIEDAVKLLQECKKIIVLTGAGVSVSCGIPDARSRDGIYARLAVDFPDLPDPQAMFDIEYFRKDPRPFFKFAKEIYPGQFQPSLCHKFIALSDKEGKLLRNYTQNIDTLEQVAGIQRILQCHGSFATASCLICKYKVDCEAVRGDIFNQVVPRCPRCPADEPLAIMKPEIVFFGENLPEQFHRAMKYDKDEVDLLIVIGSSLKVRPVALIPSSIPHEVPQILINREPLPHLHFDVELLGDCDVIINELCHRLGGEYAKLCCNPVKLSEITEKPPRPQKELVHLSELPPTPLHISEDSSSPERTVPQDSSVIATLVDQATNNNVNDLEVSESSCVEEKPQEVQTSRNVENINVENPDFKAVGSSTADKNERTSVAETVRKCWPNRLAKEQISKRLEGNQYLFVPPNRYIFHGAEVYSDSEDDVLSSSSCGSNSDSGTCQSPSLEEPLEDESEIEEFYNGLEDDTERPECAGGSGFGADGGDQEVVNEAIATRQELTDVNYPSDKS
mono-ADP-ribosylation activity relative to wild type (Phosphorimaging): completely abolished the activity

B3: recombinant mSir2α mutant S257A (protein)
chain: MADEVALALQAAGSPSAAAAMEAASQPADEPLRKRPRRDGPGLGRSPGEPSAAVAPAAAGCEAASAAAPAALWREAAGAAASAEREAPATAVAGDGDNGSGLRREPRAADDFDDDEGEEEDEAAAAAAAAAIGYRDNLLLTDGLLTNGFHSCESDDDDRTSHASSSDWTPRPRIGPYTFVQQHLMIGTDPRTILKDLLPETIPPPELDDMTLWQIVINILSEPPKRKKRKDINTIEDAVKLLQECKKIIVLTGAGVAVSCGIPDFRSRDGIYARLAVDFPDLPDPQAMFDIEYFRKDPRPFFKFAKEIYPGQFQPSLCHKFIALSDKEGKLLRNYTQNIDTLEQVAGIQRILQCHGSFATASCLICKYKVDCEAVRGDIFNQVVPRCPRCPADEPLAIMKPEIVFFGENLPEQFHRAMKYDKDEVDLLIVIGSSLKVRPVALIPSSIPHEVPQILINREPLPHLHFDVELLGDCDVIINELCHRLGGEYAKLCCNPVKLSEITEKPPRPQKELVHLSELPPTPLHISEDSSSPERTVPQDSSVIATLVDQATNNNVNDLEVSESSCVEEKPQEVQTSRNVENINVENPDFKAVGSSTADKNERTSVAETVRKCWPNRLAKEQISKRLEGNQYLFVPPNRYIFHGAEVYSDSEDDVLSSSSCGSNSDSGTCQSPSLEEPLEDESEIEEFYNGLEDDTERPECAGGSGFGADGGDQEVVNEAIATRQELTDVNYPSDKS
mono-ADP-ribosylation activity relative to wild type (Phosphorimaging): completely abolished the activity

B4: recombinant mSir2α mutant I262A (protein)
chain: MADEVALALQAAGSPSAAAAMEAASQPADEPLRKRPRRDGPGLGRSPGEPSAAVAPAAAGCEAASAAAPAALWREAAGAAASAEREAPATAVAGDGDNGSGLRREPRAADDFDDDEGEEEDEAAAAAAAAAIGYRDNLLLTDGLLTNGFHSCESDDDDRTSHASSSDWTPRPRIGPYTFVQQHLMIGTDPRTILKDLLPETIPPPELDDMTLWQIVINILSEPPKRKKRKDINTIEDAVKLLQECKKIIVLTGAGVSVSCGAPDFRSRDGIYARLAVDFPDLPDPQAMFDIEYFRKDPRPFFKFAKEIYPGQFQPSLCHKFIALSDKEGKLLRNYTQNIDTLEQVAGIQRILQCHGSFATASCLICKYKVDCEAVRGDIFNQVVPRCPRCPADEPLAIMKPEIVFFGENLPEQFHRAMKYDKDEVDLLIVIGSSLKVRPVALIPSSIPHEVPQILINREPLPHLHFDVELLGDCDVIINELCHRLGGEYAKLCCNPVKLSEITEKPPRPQKELVHLSELPPTPLHISEDSSSPERTVPQDSSVIATLVDQATNNNVNDLEVSESSCVEEKPQEVQTSRNVENINVENPDFKAVGSSTADKNERTSVAETVRKCWPNRLAKEQISKRLEGNQYLFVPPNRYIFHGAEVYSDSEDDVLSSSSCGSNSDSGTCQSPSLEEPLEDESEIEEFYNGLEDDTERPECAGGSGFGADGGDQEVVNEAIATRQELTDVNYPSDKS
mono-ADP-ribosylation activity relative to wild type (Phosphorimaging): completely abolished the activity

B5: recombinant mSir2α mutant G255A (protein)
chain: MADEVALALQAAGSPSAAAAMEAASQPADEPLRKRPRRDGPGLGRSPGEPSAAVAPAAAGCEAASAAAPAALWREAAGAAASAEREAPATAVAGDGDNGSGLRREPRAADDFDDDEGEEEDEAAAAAAAAAIGYRDNLLLTDGLLTNGFHSCESDDDDRTSHASSSDWTPRPRIGPYTFVQQHLMIGTDPRTILKDLLPETIPPPELDDMTLWQIVINILSEPPKRKKRKDINTIEDAVKLLQECKKIIVLTGAAVSVSCGIPDFRSRDGIYARLAVDFPDLPDPQAMFDIEYFRKDPRPFFKFAKEIYPGQFQPSLCHKFIALSDKEGKLLRNYTQNIDTLEQVAGIQRILQCHGSFATASCLICKYKVDCEAVRGDIFNQVVPRCPRCPADEPLAIMKPEIVFFGENLPEQFHRAMKYDKDEVDLLIVIGSSLKVRPVALIPSSIPHEVPQILINREPLPHLHFDVELLGDCDVIINELCHRLGGEYAKLCCNPVKLSEITEKPPRPQKELVHLSELPPTPLHISEDSSSPERTVPQDSSVIATLVDQATNNNVNDLEVSESSCVEEKPQEVQTSRNVENINVENPDFKAVGSSTADKNERTSVAETVRKCWPNRLAKEQISKRLEGNQYLFVPPNRYIFHGAEVYSDSEDDVLSSSSCGSNSDSGTCQSPSLEEPLEDESEIEEFYNGLEDDTERPECAGGSGFGADGGDQEVVNEAIATRQELTDVNYPSDKS
mono-ADP-ribosylation activity relative to wild type (Phosphorimaging): completely abolished the activity

B6: recombinant mSir2α mutant G270A (protein)
chain: MADEVALALQAAGSPSAAAAMEAASQPADEPLRKRPRRDGPGLGRSPGEPSAAVAPAAAGCEAASAAAPAALWREAAGAAASAEREAPATAVAGDGDNGSGLRREPRAADDFDDDEGEEEDEAAAAAAAAAIGYRDNLLLTDGLLTNGFHSCESDDDDRTSHASSSDWTPRPRIGPYTFVQQHLMIGTDPRTILKDLLPETIPPPELDDMTLWQIVINILSEPPKRKKRKDINTIEDAVKLLQECKKIIVLTGAGVSVSCGIPDFRSRDAIYARLAVDFPDLPDPQAMFDIEYFRKDPRPFFKFAKEIYPGQFQPSLCHKFIALSDKEGKLLRNYTQNIDTLEQVAGIQRILQCHGSFATASCLICKYKVDCEAVRGDIFNQVVPRCPRCPADEPLAIMKPEIVFFGENLPEQFHRAMKYDKDEVDLLIVIGSSLKVRPVALIPSSIPHEVPQILINREPLPHLHFDVELLGDCDVIINELCHRLGGEYAKLCCNPVKLSEITEKPPRPQKELVHLSELPPTPLHISEDSSSPERTVPQDSSVIATLVDQATNNNVNDLEVSESSCVEEKPQEVQTSRNVENINVENPDFKAVGSSTADKNERTSVAETVRKCWPNRLAKEQISKRLEGNQYLFVPPNRYIFHGAEVYSDSEDDVLSSSSCGSNSDSGTCQSPSLEEPLEDESEIEEFYNGLEDDTERPECAGGSGFGADGGDQEVVNEAIATRQELTDVNYPSDKS
mono-ADP-ribosylation activity relative to wild type (Phosphorimaging): completely abolished the activity

B7: recombinant mSir2α mutant T336A (protein)
chain: MADEVALALQAAGSPSAAAAMEAASQPADEPLRKRPRRDGPGLGRSPGEPSAAVAPAAAGCEAASAAAPAALWREAAGAAASAEREAPATAVAGDGDNGSGLRREPRAADDFDDDEGEEEDEAAAAAAAAAIGYRDNLLLTDGLLTNGFHSCESDDDDRTSHASSSDWTPRPRIGPYTFVQQHLMIGTDPRTILKDLLPETIPPPELDDMTLWQIVINILSEPPKRKKRKDINTIEDAVKLLQECKKIIVLTGAGVSVSCGIPDFRSRDGIYARLAVDFPDLPDPQAMFDIEYFRKDPRPFFKFAKEIYPGQFQPSLCHKFIALSDKEGKLLRNYAQNIDTLEQVAGIQRILQCHGSFATASCLICKYKVDCEAVRGDIFNQVVPRCPRCPADEPLAIMKPEIVFFGENLPEQFHRAMKYDKDEVDLLIVIGSSLKVRPVALIPSSIPHEVPQILINREPLPHLHFDVELLGDCDVIINELCHRLGGEYAKLCCNPVKLSEITEKPPRPQKELVHLSELPPTPLHISEDSSSPERTVPQDSSVIATLVDQATNNNVNDLEVSESSCVEEKPQEVQTSRNVENINVENPDFKAVGSSTADKNERTSVAETVRKCWPNRLAKEQISKRLEGNQYLFVPPNRYIFHGAEVYSDSEDDVLSSSSCGSNSDSGTCQSPSLEEPLEDESEIEEFYNGLEDDTERPECAGGSGFGADGGDQEVVNEAIATRQELTDVNYPSDKS
mono-ADP-ribosylation activity relative to wild type (Phosphorimaging): completely abolished the activity

B8: endogenous mSir2α protein of mouse NIH3T3 cells (protein)
chain: ADEVALALQAAGSPSAAAAMEAASQPADEPLRKRPRRDGPGLGRSPGEPSAAVAPAAAGCEAASAAAPAALWREAAGAAASAEREAPATAVAGDGDNGSGLRREPRAADDFDDDEGEEEDEAAAAAAAAAIGYRDNLLLTDGLLTNGFHSCESDDDDRTSHASSSDWTPRPRIGPYTFVQQHLMIGTDPRTILKDLLPETIPPPELDDMTLWQIVINILSEPPKRKKRKDINTIEDAVKLLQECKKIIVLTGAGVSVSCGIPDFRSRDGIYARLAVDFPDLPDPQAMFDIEYFRKDPRPFFKFAKEIYPGQFQPSLCHKFIALSDKEGKLLRNYTQNIDTLEQVAGIQRILQCHGSFATASCLICKYKVDCEAVRGDIFNQVVPRCPRCPADEPLAIMKPEIVFFGENLPEQFHRAMKYDKDEVDLLIVIGSSLKVRPVALIPSSIPHEVPQILINREPLPHLHFDVELLGDCDVIINELCHRLGGEYAKLCCNPVKLSEITEKPPRPQKELVHLSELPPTPLHISEDSSSPERTVPQDSSVIATLVDQATNNNVNDLEVSESSCVEEKPQEVQTSRNVENINVENPDFKAVGSSTADKNERTSVAETVRKCWPNRLAKEQISKRLEGNQYLFVPPNRYIFHGAEVYSDSEDDVLSSSSCGSNSDSGTCQSPSLEEPLEDESEIEEFYNGLEDDTERPECAGGSGFGADGGDQEVVNEAIATRQELTDVNYPSDKS
ADP-ribosyl-transferase activity of the immune complex on Protein A-Sepharose beads: ADP-ribosyl-transferase activity could be detected for the endogenous mSir2α immunoprecipitated from NIH3T3 whole cell extracts
